Results reported in US20030017568A1, “Smooth muscle myosin phosphatase associated kinase” (priority 2001, published 2003).

Test system: permealized rabbit longitudinal ileum smooth muscle strips
Experiment: Force in permeabilized rabbit longitudinal ileum smooth muscle strips (Ca2+-sensitization)
Protocol: Instead, when rN-ZIP^1-320 kinase is added a 40% increase in muscular force is produced at the same submaximal calcium concentration.

B1: rN-ZIP^1-320 kinase: recombinant 38 kDa GST-fusion protein of the N-terminal region (1-320) of ZIP kinase, expressed in E. coli, constitutively active (protein, UniProt O43293 1-320, looked up, fragment)
chain: MSTFRQEDVEDHYEMGEELGSGQFAIVRKCRQKGTGKEYAAKFIKKRRLSSSRRGVSREEIEREVNILREIRHPNIITLHDIFENKTDVVLILELVSGGELFDFLAEKESLTEDEATQFLKQILDGVHYLHSKRIAHFDLKPENIMLLDKNVPNPRIKLIDFGIAHKIEAGNEFKNIFGTPEFVAPEIVNYEPLGLEADMWSIGVITYILLSGASPFLGETKQETLTNISAVNYDFDEEYFSNTSELAKDFIRRLLVKDPKRRMTIAQSLEHSWIKAIRRRNVRGEDSGRKPERRRLKTTRLKEYTIKSHSSLPPNNSYA
modifications: GST fusion
At the same submaximal calcium concentration
  Increase in muscular force: 40%
Permeabilized ileum strips, no calcium
  Contraction in the absence of calcium: does not cause contraction
